Experimental data published in publication PMC4039371 (Molecular Systems Biology, 2013).

Target: T1, GST-Cdc14 (S. cerevisiae, UniProt Q00684 1-551)
T1 sequence (looked up): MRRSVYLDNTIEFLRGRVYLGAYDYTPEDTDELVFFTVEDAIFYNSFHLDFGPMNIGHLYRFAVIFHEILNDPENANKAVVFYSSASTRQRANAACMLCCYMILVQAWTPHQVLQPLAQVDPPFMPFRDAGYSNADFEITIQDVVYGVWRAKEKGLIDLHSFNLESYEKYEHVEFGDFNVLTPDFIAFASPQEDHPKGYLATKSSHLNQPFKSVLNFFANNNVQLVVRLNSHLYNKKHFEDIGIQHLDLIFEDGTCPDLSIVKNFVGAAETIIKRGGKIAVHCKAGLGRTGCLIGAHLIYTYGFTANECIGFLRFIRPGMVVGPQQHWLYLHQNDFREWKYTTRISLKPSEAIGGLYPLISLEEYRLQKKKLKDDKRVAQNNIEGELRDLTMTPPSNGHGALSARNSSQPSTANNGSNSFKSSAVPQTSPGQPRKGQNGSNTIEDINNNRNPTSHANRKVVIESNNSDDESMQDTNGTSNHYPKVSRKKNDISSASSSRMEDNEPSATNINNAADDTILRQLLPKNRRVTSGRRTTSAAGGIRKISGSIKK
Assay: pull-down

B1: recombinant Ubc9 protein (enzyme, S. cerevisiae, UniProt P50623 1-157, looked up)
chain: MSSLCLQRLQEERKKWRKDHPFGFYAKPVKKADGSMDLQKWEAGIPGKEGTNWAGGVYPITVEYPNEYPSKPPKVKFPAGFYHPNVYPSGTICLSILNEDQDWRPAITLKQIVLGVQDLLDSPNPNSPAQEPAWRSFSRNKAEYDKKVLLQAKQYSK
B1: binds.
